Measurements published in patent US20180311300A1 (published 2018).
Several values for one entry are separate records, joined by “and”; a condition that tells them apart may be missing. Identical values can stand only once. Numbered stars: 1 amine (or outer) side, 2 acyl side, 3 side chain; on linkers, the order of the positions; unused ones are H or OH. Bridge positions count the residues as written; N and C are the ends. Square brackets hold non-standard residues; d marks the D form. Ends that are not written are not given here. Intermediate H = 1,1',1''-(1,7,13-trioxa-4,10,16-triazacyclooctadecane-4,10,16-triyl)tris(2-chloroethan-1-one), O=C(C[*:1])N1CCOCCN(C(=O)C[*:2])CCOCCN(C(=O)C[*:3])CCOCC1; Intermediate D = 1,1',1''-(1,4,7-triazonane-1,4,7-triyl)tris(prop-2-en-1-one), O=C(CC[*:1])N1CCN(C(=O)CC[*:2])CCN(C(=O)CC[*:3])CC1; Intermediate K = 1,3,5-tris(vinylsulfonyl)benzene, O=S(=O)(CC[*:1])c1cc(S(=O)(=O)CC[*:2])cc(S(=O)(=O)CC[*:3])c1; Intermediate C = 1,1',1''-(1,4,7-triazonane-1,4,7-triyl)tris(2-chloroethan-1-one); Intermediate I = 1,4,7-tris(vinylsulfonyl)-1,4,7-triazonane; 1Nal = N[C@@H](Cc1cccc2ccccc12)C(=O)O; Tle = CC(C)(C)[C@H](N)C(=O)O

Assays:
MT1-MMP hemopexin domain [1] = target: T1, MT1-MMP hemopexin domain (UniProt P50281 319-511); experiment: fluorescence polarization (anisotropy) assay on MT1-MMP hemopexin domain; grade D = Ki >1,000 nM
T1 construct: domain: hemopexin domain; also called hemopexin of MT1-MMP; membrane type 1 metalloprotease
Method: (§1) Direct Binding Fluorescence Polarization or Anisotropy Assays are performed by titrating a constant concentration of fluorescent tracer (here, the fluoresceinated bicyclic peptide to be studied) with its binding partner (here, the MT1-MMP hemopexin domain). As the concentration of binding partner increases during the titration, the polarization signal changes in proportion to the fraction of bound and unbound material. This allows determination of […] (Kd) quantitatively. Assay data can be fit using standard ligand binding equations.
(§2) The titrant (binding partner) concentration is varied from 0.1 nM up to typically 5 μM. The range is chosen such that the maximum change in fluorescent polarization can be observed. Buffers employed are phosphate buffered saline in the presence of 0.01% Tween. Experiments were run in black 384 well low-bind/low volume plates (Corning 3820), and the fluorescent polarization signal was measured using a BMG Pherastar FS plate reader. Fluorescent tracers referred to in the text are bicyclic peptides that have been fluoresceinated using 5,6-carboxyfluorescein. Fluoresceination may be performed on the N-terminal amino group of the peptide, which is separated from the bicycle core sequence by a sarcosine spacer (usually Sar5). […]

MT1-MMP hemopexin domain [2] = target: T1, MT1-MMP hemopexin domain; experiment: fluorescence polarization (anisotropy) assay on MT1-MMP hemopexin domain; grade B = Ki >50 nM and <=100 nM
Method: as §1, §2

MT1-MMP hemopexin domain [3] = target: T1, MT1-MMP hemopexin domain; experiment: fluorescence polarization (anisotropy) assay on MT1-MMP hemopexin domain; grade A = Ki <50 nM
Method: as §1, §2

| Ki (MT1-MMP hemopexin domain [2]) | Ki (MT1-MMP hemopexin domain [3]) [nM] | Binder | also measured |
| --- | --- | --- | --- |
| – | – | AC[dA]NE[1Nal][dA]CEDFYD[Tle]C (linker 2-8-15 via Intermediate I, also called peptide 4 cyclised with Intermediate I) [I-59] | Ki (MT1-MMP hemopexin domain [1]): > 1000 nM |
| > 50 nM and ≤ 100 nM | – | AC[dA]NE[1Nal][dA]CEDFYD[Tle]C (linker 2-8-15 via Intermediate H, also called peptide 4 cyclised with Intermediate H) [I-58] | – |
| – | < 50 | AC[dA]NE[1Nal][dA]CEDFYD[Tle]C (linker 2-8-15 via Intermediate K, also called peptide 4 cyclised with Intermediate K) [I-61] | – |
| – | < 50 | AC[dA]NE[1Nal][dA]CEDFYD[Tle]C (linker 2-8-15 via Intermediate C, also called peptide 4 cyclised with Intermediate C) [I-54] | – |
| > 50 nM and ≤ 100 nM | – | AC[dA]NE[1Nal][dA]CEDFYD[Tle]C (linker 2-8-15 via Intermediate D, also called peptide 4 cyclised with Intermediate D) [I-55] | – |
